Data taken from patent US20240301076A1 (CEPHALON, published 2024).

T1: human CXCR2 (human, UniProt P25025 1-360)
T1 construct: also called CXC chemokine receptor 2; hCXCR2
T1 sequence: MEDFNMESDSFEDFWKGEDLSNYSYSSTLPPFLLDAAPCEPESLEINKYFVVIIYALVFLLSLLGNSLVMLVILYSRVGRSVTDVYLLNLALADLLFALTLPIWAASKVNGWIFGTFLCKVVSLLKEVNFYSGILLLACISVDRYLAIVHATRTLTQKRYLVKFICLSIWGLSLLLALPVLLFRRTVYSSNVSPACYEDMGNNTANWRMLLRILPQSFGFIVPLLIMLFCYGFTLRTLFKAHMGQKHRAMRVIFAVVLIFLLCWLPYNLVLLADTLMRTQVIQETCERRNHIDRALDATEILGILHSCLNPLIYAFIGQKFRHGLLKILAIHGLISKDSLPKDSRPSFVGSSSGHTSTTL


target: T1, human CXCR2; assay: flow cytometry, CXCR2-transfected Expi293F cells
Protocol: Harvested cells were resuspended in FACS buffer (1×PBS+0.5% (w/v) bovine serum albumin (BSA)+2 mM EDTA pH 7.2). Approximately 2×10⁵ cells were added per well in a 96-well round-bottomed plate. Cells were pelleted by centrifugation at 400 g for 5 mins at 4° C. and supernatants discarded. 25 μL of each test antibody or control antibody was added to the cells and incubated for 30 minutes at 4° C. Cells were washed twice in 100 μL FACS buffer followed by centrifugation at 400 g for 5 mins at 4° C.
For detection, 50 μL of secondary antibody (Table 2) was added to relevant samples. Commercially available antibodies that bound to transfected CXCR family members were used as positive controls to ensure that the cells were expressing the receptors. Cells were washed twice in 200 μL of FACS buffer followed by centrifugation at 400 g for 5 mins at 4° C. Before sample acquisition, cells were resuspended in 100 μL of FACS buffer. Samples were acquired using the high throughput sampler on a FACSCanto™ II cytometer (Beckton-Dickinson).
Each variant heavy chain was co-expressed with the parental light chain and vice versa.

| Binder | Fold change in binding relative to BKO-4A8 [fold] |
| --- | --- |
| BKO-4A8 variant VH G52aD (antibody, human IgG4 S228P, lambda, V domains shown, IgG4 S228P, lambda; parental light chain; also called 4A8 VH G52aD) VH: EVQLLESGGGLVQPGGSLRLSCAASGFTFSSSTMSWVRQAPGKGLEWVSAISDRGRNTYYADSVKGRFTISRDNSRNTLYLQMNSLRAEDTAVYYCAIQMGYWGQGILVTVSS VL: QSALTQPPSASGSPGQSVTISCIGTSSDVGGYNYVSWYQQHPDKAPKLMIYEVNKRPSGVPDRFSGSKSGNTASLTVSGLQAEDEADYYCSSYAGNNNFGVFGGGTKLTVLG | 1.18 |
| BKO-4A8 variant VH S32W (antibody, human IgG4 S228P, lambda, V domains shown, IgG4 S228P, lambda; parental light chain; also called 4A8 VH S32W) VH: EVQLLESGGGLVQPGGSLRLSCAASGFTFSSWTMSWVRQAPGKGLEWVSAISGRGRNTYYADSVKGRFTISRDNSRNTLYLQMNSLRAEDTAVYYCAIQMGYWGQGILVTVSS VL: QSALTQPPSASGSPGQSVTISCIGTSSDVGGYNYVSWYQQHPDKAPKLMIYEVNKRPSGVPDRFSGSKSGNTASLTVSGLQAEDEADYYCSSYAGNNNFGVFGGGTKLTVLG | 0.83 |
| BKO-4A8 variant VH T33A (antibody, human IgG4 S228P, lambda, V domains shown, IgG4 S228P, lambda; parental light chain; also called 4A8 VH T33A) VH: EVQLLESGGGLVQPGGSLRLSCAASGFTFSSSAMSWVRQAPGKGLEWVSAISGRGRNTYYADSVKGRFTISRDNSRNTLYLQMNSLRAEDTAVYYCAIQMGYWGQGILVTVSS VL: QSALTQPPSASGSPGQSVTISCIGTSSDVGGYNYVSWYQQHPDKAPKLMIYEVNKRPSGVPDRFSGSKSGNTASLTVSGLQAEDEADYYCSSYAGNNNFGVFGGGTKLTVLG | 1.3 |
| BKO-4A8 variant VH G54D (antibody, human IgG4 S228P, lambda, V domains shown, IgG4 S228P, lambda; parental light chain; also called 4A8 VH G54D) VH: EVQLLESGGGLVQPGGSLRLSCAASGFTFSSSTMSWVRQAPGKGLEWVSAISGRDRNTYYADSVKGRFTISRDNSRNTLYLQMNSLRAEDTAVYYCAIQMGYWGQGILVTVSS VL: QSALTQPPSASGSPGQSVTISCIGTSSDVGGYNYVSWYQQHPDKAPKLMIYEVNKRPSGVPDRFSGSKSGNTASLTVSGLQAEDEADYYCSSYAGNNNFGVFGGGTKLTVLG | 1 |
| BKO-4A8 variant VH S32H (antibody, human IgG4 S228P, lambda, V domains shown, IgG4 S228P, lambda; parental light chain; also called 4A8 VH S32H) VH: EVQLLESGGGLVQPGGSLRLSCAASGFTFSSHTMSWVRQAPGKGLEWVSAISGRGRNTYYADSVKGRFTISRDNSRNTLYLQMNSLRAEDTAVYYCAIQMGYWGQGILVTVSS VL: QSALTQPPSASGSPGQSVTISCIGTSSDVGGYNYVSWYQQHPDKAPKLMIYEVNKRPSGVPDRFSGSKSGNTASLTVSGLQAEDEADYYCSSYAGNNNFGVFGGGTKLTVLG | 0.86 |
| BKO-4A8 variant VH Y102S (antibody, human IgG4 S228P, lambda, V domains shown, IgG4 S228P, lambda; parental light chain; also called 4A8 VH Y102S) VH: EVQLLESGGGLVQPGGSLRLSCAASGFTFSSSTMSWVRQAPGKGLEWVSAISGRGRNTYYADSVKGRFTISRDNSRNTLYLQMNSLRAEDTAVYYCAIQMGSWGQGILVTVSS VL: QSALTQPPSASGSPGQSVTISCIGTSSDVGGYNYVSWYQQHPDKAPKLMIYEVNKRPSGVPDRFSGSKSGNTASLTVSGLQAEDEADYYCSSYAGNNNFGVFGGGTKLTVLG | 1.5 |
| BKO-4A8 variant VH S32L (antibody, human IgG4 S228P, lambda, V domains shown, IgG4 S228P, lambda; parental light chain; also called 4A8 VH S32L) VH: EVQLLESGGGLVQPGGSLRLSCAASGFTFSSLTMSWVRQAPGKGLEWVSAISGRGRNTYYADSVKGRFTISRDNSRNTLYLQMNSLRAEDTAVYYCAIQMGYWGQGILVTVSS VL: QSALTQPPSASGSPGQSVTISCIGTSSDVGGYNYVSWYQQHPDKAPKLMIYEVNKRPSGVPDRFSGSKSGNTASLTVSGLQAEDEADYYCSSYAGNNNFGVFGGGTKLTVLG | 1.33 |
| BKO-4A8 variant VH G101D (antibody, human IgG4 S228P, lambda, V domains shown, IgG4 S228P, lambda; parental light chain; also called 4A8 VH G101D) VH: EVQLLESGGGLVQPGGSLRLSCAASGFTFSSSTMSWVRQAPGKGLEWVSAISGRGRNTYYADSVKGRFTISRDNSRNTLYLQMNSLRAEDTAVYYCAIQMDYWGQGILVTVSS VL: QSALTQPPSASGSPGQSVTISCIGTSSDVGGYNYVSWYQQHPDKAPKLMIYEVNKRPSGVPDRFSGSKSGNTASLTVSGLQAEDEADYYCSSYAGNNNFGVFGGGTKLTVLG | 1 |
| BKO-4A8 variant VH S32Q (antibody, human IgG4 S228P, lambda, V domains shown, IgG4 S228P, lambda; parental light chain; also called 4A8 VH S32Q) VH: EVQLLESGGGLVQPGGSLRLSCAASGFTFSSQTMSWVRQAPGKGLEWVSAISGRGRNTYYADSVKGRFTISRDNSRNTLYLQMNSLRAEDTAVYYCAIQMGYWGQGILVTVSS VL: QSALTQPPSASGSPGQSVTISCIGTSSDVGGYNYVSWYQQHPDKAPKLMIYEVNKRPSGVPDRFSGSKSGNTASLTVSGLQAEDEADYYCSSYAGNNNFGVFGGGTKLTVLG | 1.71 |
| BKO-4A8 variant VH M34W (antibody, human IgG4 S228P, lambda, V domains shown, IgG4 S228P, lambda; parental light chain; also called 4A8 VH M34W) VH: EVQLLESGGGLVQPGGSLRLSCAASGFTFSSSTWSWVRQAPGKGLEWVSAISGRGRNTYYADSVKGRFTISRDNSRNTLYLQMNSLRAEDTAVYYCAIQMGYWGQGILVTVSS VL: QSALTQPPSASGSPGQSVTISCIGTSSDVGGYNYVSWYQQHPDKAPKLMIYEVNKRPSGVPDRFSGSKSGNTASLTVSGLQAEDEADYYCSSYAGNNNFGVFGGGTKLTVLG | 1.17 |
| BKO-4A8 variant VH Y102K (antibody, human IgG4 S228P, lambda, V domains shown, IgG4 S228P, lambda; parental light chain; also called 4A8 VH Y102K) VH: EVQLLESGGGLVQPGGSLRLSCAASGFTFSSSTMSWVRQAPGKGLEWVSAISGRGRNTYYADSVKGRFTISRDNSRNTLYLQMNSLRAEDTAVYYCAIQMGKWGQGILVTVSS VL: QSALTQPPSASGSPGQSVTISCIGTSSDVGGYNYVSWYQQHPDKAPKLMIYEVNKRPSGVPDRFSGSKSGNTASLTVSGLQAEDEADYYCSSYAGNNNFGVFGGGTKLTVLG | 1.3 |
| BKO-4A8 variant VH R53Q (antibody, human IgG4 S228P, lambda, V domains shown, IgG4 S228P, lambda; parental light chain; also called 4A8 VH R53Q) VH: EVQLLESGGGLVQPGGSLRLSCAASGFTFSSSTMSWVRQAPGKGLEWVSAISGQGRNTYYADSVKGRFTISRDNSRNTLYLQMNSLRAEDTAVYYCAIQMGYWGQGILVTVSS VL: QSALTQPPSASGSPGQSVTISCIGTSSDVGGYNYVSWYQQHPDKAPKLMIYEVNKRPSGVPDRFSGSKSGNTASLTVSGLQAEDEADYYCSSYAGNNNFGVFGGGTKLTVLG | 0.64 |
| BKO-4A8 variant VL E50D (antibody, human IgG4 S228P, lambda, V domains shown, IgG4 S228P, lambda; parental heavy chain; also called 4A8 VL E50D) VH: EVQLLESGGGLVQPGGSLRLSCAASGFTFSSSTMSWVRQAPGKGLEWVSAISGRGRNTYYADSVKGRFTISRDNSRNTLYLQMNSLRAEDTAVYYCAIQMGYWGQGILVTVSS VL: QSALTQPPSASGSPGQSVTISCIGTSSDVGGYNYVSWYQQHPDKAPKLMIYDVNKRPSGVPDRFSGSKSGNTASLTVSGLQAEDEADYYCSSYAGNNNFGVFGGGTKLTVLG | 2 |
| BKO-4A8 variant VH I51H (antibody, human IgG4 S228P, lambda, V domains shown, IgG4 S228P, lambda; parental light chain; also called 4A8 VH I51H) VH: EVQLLESGGGLVQPGGSLRLSCAASGFTFSSSTMSWVRQAPGKGLEWVSAHSGRGRNTYYADSVKGRFTISRDNSRNTLYLQMNSLRAEDTAVYYCAIQMGYWGQGILVTVSS VL: QSALTQPPSASGSPGQSVTISCIGTSSDVGGYNYVSWYQQHPDKAPKLMIYEVNKRPSGVPDRFSGSKSGNTASLTVSGLQAEDEADYYCSSYAGNNNFGVFGGGTKLTVLG | 1.8 |
| BKO-4A8 variant VH S32Y (antibody, human IgG4 S228P, lambda, V domains shown, IgG4 S228P, lambda; parental light chain; also called 4A8 VH S32Y) VH: EVQLLESGGGLVQPGGSLRLSCAASGFTFSSYTMSWVRQAPGKGLEWVSAISGRGRNTYYADSVKGRFTISRDNSRNTLYLQMNSLRAEDTAVYYCAIQMGYWGQGILVTVSS VL: QSALTQPPSASGSPGQSVTISCIGTSSDVGGYNYVSWYQQHPDKAPKLMIYEVNKRPSGVPDRFSGSKSGNTASLTVSGLQAEDEADYYCSSYAGNNNFGVFGGGTKLTVLG | 1.33 |
| BKO-4A8 variant VH M34D (antibody, human IgG4 S228P, lambda, V domains shown, IgG4 S228P, lambda; parental light chain; also called 4A8 VH M34D) VH: EVQLLESGGGLVQPGGSLRLSCAASGFTFSSSTDSWVRQAPGKGLEWVSAISGRGRNTYYADSVKGRFTISRDNSRNTLYLQMNSLRAEDTAVYYCAIQMGYWGQGILVTVSS VL: QSALTQPPSASGSPGQSVTISCIGTSSDVGGYNYVSWYQQHPDKAPKLMIYEVNKRPSGVPDRFSGSKSGNTASLTVSGLQAEDEADYYCSSYAGNNNFGVFGGGTKLTVLG | 1.6 |
| BKO-4A8 variant VH R53S (antibody, human IgG4 S228P, lambda, V domains shown, IgG4 S228P, lambda; parental light chain; also called 4A8 VH R53S) VH: EVQLLESGGGLVQPGGSLRLSCAASGFTFSSSTMSWVRQAPGKGLEWVSAISGSGRNTYYADSVKGRFTISRDNSRNTLYLQMNSLRAEDTAVYYCAIQMGYWGQGILVTVSS VL: QSALTQPPSASGSPGQSVTISCIGTSSDVGGYNYVSWYQQHPDKAPKLMIYEVNKRPSGVPDRFSGSKSGNTASLTVSGLQAEDEADYYCSSYAGNNNFGVFGGGTKLTVLG | 1 |
| BKO-4A8 variant VL K53A (antibody, human IgG4 S228P, lambda, V domains shown, IgG4 S228P, lambda; parental heavy chain; also called 4A8 VL K53A) VH: EVQLLESGGGLVQPGGSLRLSCAASGFTFSSSTMSWVRQAPGKGLEWVSAISGRGRNTYYADSVKGRFTISRDNSRNTLYLQMNSLRAEDTAVYYCAIQMGYWGQGILVTVSS VL: QSALTQPPSASGSPGQSVTISCIGTSSDVGGYNYVSWYQQHPDKAPKLMIYEVNARPSGVPDRFSGSKSGNTASLTVSGLQAEDEADYYCSSYAGNNNFGVFGGGTKLTVLG | 1.4 |
